Results published in patent US20230027639A1.

How the values were obtained:
[1] = molecular target: anti-CD19 CAR on CD19 CAR-T cells (the extracellular binding domain of the CAR was FMC63scfv); test: flow cytometry on CD19 CAR-T cells; mean ± SD of three parallel experiments
[2] = molecular target: anti-CD19 CAR on CD19 CAR-T cells (the extracellular binding domain of the CAR was FMC63scfv); test: flow cytometry on CD19 CAR-T cells, Biotinylated Human CD19 Fc Tag detected with PE anti-Biotin; percent CAR-positive cells, replicate 1
[3] = molecular target: anti-CD19 CAR on CD19 CAR-T cells (the extracellular binding domain of the CAR was FMC63scfv); test: flow cytometry on CD19 CAR-T cells, Biotinylated Human CD19 Fc Tag detected with PE anti-Biotin; percent CAR-positive cells, replicate 2
[4] = molecular target: anti-CD19 CAR on CD19 CAR-T cells (the extracellular binding domain of the CAR was FMC63scfv); test: flow cytometry on CD19 CAR-T cells, Biotinylated Human CD19 Fc Tag detected with PE anti-Biotin; percent CAR-positive cells, replicate 3
[5] = molecular target: anti-CD19 CAR on CD19 CAR-T cells (the extracellular binding domain of the CAR was FMC63scfv); test: cell-based or functional assay
[6] = molecular target: anti-CD19 CAR on CD19 CAR-T cells (the extracellular binding domain of the CAR was FMC63scfv); test: flow cytometry on CD19 CAR-T cells, biotin-labelled antibody detected with PE anti-Biotin; percent CAR-positive cells, replicate 1
[7] = molecular target: anti-CD19 CAR on CD19 CAR-T cells (the extracellular binding domain of the CAR was FMC63scfv); test: flow cytometry on CD19 CAR-T cells, biotin-labelled antibody detected with PE anti-Biotin; percent CAR-positive cells, replicate 2
[8] = molecular target: anti-CD19 CAR on CD19 CAR-T cells (the extracellular binding domain of the CAR was FMC63scfv); test: flow cytometry on CD19 CAR-T cells, biotin-labelled antibody detected with PE anti-Biotin; percent CAR-positive cells, replicate 3

| CAR % (mean of three measurements) [1] [%] | CAR % [2] [%] | CAR % [3] [%] | CAR % [4] [%] | CAR % [6] [%] | CAR % [7] [%] | CAR % [8] [%] | Molecule | killing rate of CD19+K562 cells by CAR-T cells (LDH release), effector:target 1:1, mAb 5 µg/ml (16.0% without mAb) [5] [%] | killing rate of CD19+K562 cells by CAR-T cells (LDH release), effector:target 1:1, mAb 25 µg/ml (16.0% without mAb) [5] [%] | killing rate of CD19+K562 cells by CAR-T cells (LDH release), effector:target 5:1, mAb 5 µg/ml (51.5% without mAb) [5] [%] | killing rate of CD19+K562 cells by CAR-T cells (LDH release), effector:target 5:1, mAb 25 µg/ml (51.5% without mAb) [5] [%] |
| --- | --- | --- | --- | --- | --- | --- | --- | --- | --- | --- | --- |
| 14.2 | 10.3 | 12.3 | 20.1 | – | – | – | Biotinylated Human CD19, Fc Tag (ACROBiosystems, model CD19-H8259) (from UniProt P15391 20-291) (Fc fusion) | – | – | – | – |
| – | – | – | – | – | – | – | monoclonal antibody 3984-mab001-H (scFv) scFv: EIQLQQSGPELVKPGASVKVSCKASGYSFTDYTMYWVKQSHGKSLEWIGYIDPYNGGTNYSQRFKGKATLTVDKSSSTAFMHLNSLPSEDSAVYYCANTYDNYEFAYWGQGTLVTVSAGGGGSGGGGSGGGGSDIQMTQTTSSLSASLGDRVTISCRASQDISNYLNWYQQKPDGTVKLLIYYTSRLRSGVPSRFSGSGSGADYSLTISNLEQEDIATYFCQQGDTLPYTFGGGTKLEIN | 16.1 | 6.5 | 39.1 | 32.1 |
| 47.9 | – | – | – | 47.9 | 48.5 | 47.2 | biotin-labeled monoclonal antibody Bio-3984-mab001-H (scFv, biotin label (Sulfo-NHS-Biotin); labelled residues not stated) scFv: EIQLQQSGPELVKPGASVKVSCKASGYSFTDYTMYWVKQSHGKSLEWIGYIDPYNGGTNYSQRFKGKATLTVDKSSSTAFMHLNSLPSEDSAVYYCANTYDNYEFAYWGQGTLVTVSAGGGGSGGGGSGGGGSDIQMTQTTSSLSASLGDRVTISCRASQDISNYLNWYQQKPDGTVKLLIYYTSRLRSGVPSRFSGSGSGADYSLTISNLEQEDIATYFCQQGDTLPYTFGGGTKLEIN | – | – | – | – |
